Data reported in the supplement of paper PMC5998384.

What was measured:
HeLa Kyoto [1] = assay: solubility in G1/S (NP-40 vs SDS abundance) (log2 ratio); higher = more soluble; details: cell cycle stage: G1/S
HeLa Kyoto [2] = assay: solubility change mitosis vs G1/S (difference of NP-40 vs SDS log2 ratios) (log2 ratio difference); higher = more soluble in mitosis
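Throughout, for solubility change mitosis vs G1/S (difference of NP-40 vs SDS log2 ratios): synchronized HeLa Kyoto cells (double thymidine block for G1/S, nocodazole release for mitosis), protein amounts in NP-40 versus SDS lysates quantified by mass spectrometry, three biological replicates.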
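Throughout, for solubility in G1/S (NP-40 vs SDS abundance): HeLa Kyoto cells arrested at G1/S by double thymidine block, proteins quantified by TMT10plex mass spectrometry in mild NP-40 versus SDS extracts, three biological replicates.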

“MTSVTRSEIIDEKGPVMSKTHDHQLESSLSPVEVFAKTSASLEMNQGVSEERIHLGSSPKKGGNCDLSHQERLQSKSLHLSPQEQSASYQDRRQSWRRASMKETNRRKSLHPIHQGITELSRSISVDLAESKRLGCLLLSSFQFSIQKLEPFLRDTKGFSLESFRAKASSLSEELKHFADGLETDGTLQKCFEDSNGKASDFSLEASVAEMKEYITKFSLERQTWDQLLLHYQQEAKEILSRGSTEAKITEVKVEPMTYLGSSQNEVLNTKPDYQKILQNQSKVFDCMELVMDELQGSVKQLQAFMDESTQCFQKVSVQLGKRSMQQLDPSPARKLLKLQLQNPPAIHGSGSGSCQ [DSN1]” was tested, and the “solubility in G1/S (log2)” value (HeLa Kyoto [1]) was 0.0805 and the “solubility change mitosis (log2)” value (HeLa Kyoto [2]) was -0.12.
For “MERAVRVESGVLVGVVCLLLACPATATGPEVAQPEVDTTLGRVRGRQVGVKGTDRLVNVFLGIPFAQPPLGPDRFSAPHPAQPWEGVRDASTAPPMCLQDVESMNSSRFVLNGKQQIFSVSEDCLVLNVYSPAEVPAGSGRPVMVWVHGGALITGAATSYDGSALAAYGDVVVVTVQYRLGVLGFFSTGDEHAPGNQGFLDVVAALRWVQENIAPFGGDLNCVTVFGGSAGGSIISGLVLSPVAAGLFHRAITQSGVITTPGIIDSHPWPLAQKIANTLACSSSSPAEMVQCLQQKEGEELVLSKKLKNTIYPLTVDGTVFPKSPKELLKEKPFHSVPFLMGVNNHEFSWLIPRGWGLLDTMEQMSREDMLAISTPVLTSLDVPPEMMPTVIDEYLGSNSDAQAKCQAFQEFMGDVFINVPTVSFSRYLRDSGSPVFFYEFQHRPSSFAKIKPAWVKADHGAEGAFVFGGPFLMDESSRLAFPEATEEEKQLSLTMMAQWTHFARTGDPNSKALPPWPQFNQAEQYLEINPVPRAGQKFREAWMQFWSETLPSKIQQWHQKQKNRKAQEDL [CES3]”, the “solubility in G1/S (log2)” value (HeLa Kyoto [1]) was 0.261 and the “solubility change mitosis (log2)” value (HeLa Kyoto [2]) was -0.166.
KMT2C was tested, and the “solubility in G1/S (log2)” value (HeLa Kyoto [1]) was 0.137 and the “solubility change mitosis (log2)” value (HeLa Kyoto [2]) was -0.0115.
For “MSQKQEEENPAEETGEEKQDTQEKEGILPERAEEAKLKAKYPSLGQKPGGSDFLMKRLQKGQKYFDSGDYNMAKAKMKNKQLPSAGPDKNLVTGDHIPTPQDLPQRKSSLVTSKLAGGQVE [ENSA]”, the “solubility in G1/S (log2)” value (HeLa Kyoto [1]) was -0.789 and the “solubility change mitosis (log2)” value (HeLa Kyoto [2]) was 0.654.
“MASLQRKGLQARILTSEEEEKLKRDQTLVSDFKQQKLEQEAQKNWDLFYKRNSTNFFKDRHWTTREFEELRSCREFEDQKLTMLEAGCGVGNCLFPLLEEDPNIFAYACDFSPRAIEYVKQNPLYDTERCKVFQCDLTKDDLLDHVPPESVDVVMLIFVLSAVHPDKMHLVLQNIYKVLKPGKSVLFRDYGLYDHAMLRFKASSKLGENFYVRQDGTRSYFFTDDFLAQLFMDTGYEEVVNEYVFRETVNKKEGLCVPRVFLQSKFLKPPKNPSPVVLGLDPKS [METTL6]” was tested, and the “solubility in G1/S (log2)” value (HeLa Kyoto [1]) was 0.0543 and the “solubility change mitosis (log2)” value (HeLa Kyoto [2]) was 0.018.
In the case of TAF1, the “solubility in G1/S (log2)” value (HeLa Kyoto [1]) is reported as -0.408 and the “solubility change mitosis (log2)” value (HeLa Kyoto [2]) is reported as 0.0526.
With “MVRTKADSVPGTYRKVVAARAPRKVLGSSTSATNSTSVSSRKAENKYAGGNPVCVRPTPKWQKGIGEFFRLSPKDSEKENQIPEEAGSSGLGKAKRKACPLQPDHTNDEKE [KIAA0101]” the “solubility in G1/S (log2)” value (HeLa Kyoto [1]) was -0.0358 and the “solubility change mitosis (log2)” value (HeLa Kyoto [2]) was 0.256.
In the case of “MSRRRFDCRSISGLLTTTPQIPIKMENFNNFYILTSKELGRGKFAVVRQCISKSTGQEYAAKFLKKRRRGQDCRAEILHEIAVLELAKSCPRVINLHEVYENTSEIILILEYAAGGEIFSLCLPELAEMVSENDVIRLIKQILEGVYYLHQNNIVHLDLKPQNILLSSIYPLGDIKIVDFGMSRKIGHACELREIMGTPEYLAPEILNYDPITTATDMWNIGIIAYMLLTHTSPFVGEDNQETYLNISQVNVDYSEETFSSVSQLATDFIQSLLVKNPEKRPTAEICLSHSWLQQWDFENLFHPEETSSSSQTQDHSVRSSEDKTSKSSCNGTCGDREDKENIPEDSSMVSKRFRFDDSLPNPHELVSDLLC [STK17B]”, the “solubility in G1/S (log2)” value (HeLa Kyoto [1]) is reported as 0.0558 and the “solubility change mitosis (log2)” value (HeLa Kyoto [2]) is reported as -0.161.
For PRR12, the “solubility in G1/S (log2)” value (HeLa Kyoto [1]) was 0.163 and the “solubility change mitosis (log2)” value (HeLa Kyoto [2]) was 0.0459.
CEP350 was tested, and the “solubility in G1/S (log2)” value (HeLa Kyoto [1]) was 0.00287 and the “solubility change mitosis (log2)” value (HeLa Kyoto [2]) was 0.0106.
In the case of “MTPWLGLIVLLGSWSLGDWGAEACTCSPSHPQDAFCNSDIVIRAKVVGKKLVKEGPFGTLVYTIKQMKMYRGFTKMPHVQYIHTEASESLCGLKLEVNKYQYLLTGRVYDGKMYTGLCNFVERWDQLTLSQRKGLNYRYHLGCNCKIKSCYYLPCFVTSKNECLWTDMLSNFGYPGYQSKHYACIRQKGGYCSWYRGWAPPDKSIINATDP [TIMP3]”, the “solubility in G1/S (log2)” value (HeLa Kyoto [1]) is reported as -0.478 and the “solubility change mitosis (log2)” value (HeLa Kyoto [2]) is reported as -0.0173.
In the case of “MRPLDIVELAEPEEVEVLEPEEDFEQFLLPVINEMREDIASLTREHGRAYLRNRSKLWEMDNMLIQIKTQVEASEESALNHLQNPGDAAEGRAAKRCEKAEEKAKEIAKMAEMLVELVRRIEKSESS [MRFAP1]”, the “solubility in G1/S (log2)” value (HeLa Kyoto [1]) is reported as 0.156 and the “solubility change mitosis (log2)” value (HeLa Kyoto [2]) is reported as 0.549.
For “MENLMTSSTLPPLFADEDGSKESNDLATTGLNHPEVPYSSGATSSTNNPEFVEDLSQGQLLQSESSNAAEGNEQRHEDEQRSKRGGWSKGRKRKKPLRDSNAPKSPLTGYVRFMNERREQLRAKRPEVPFPEITRMLGNEWSKLPPEEKQRYLDEADRDKERYMKELEQYQKTEAYKVFSRKTQDRQKGKSHRQDAARQATHDHEKETEVKERSVFDIPIFTEEFLNHSKAREAELRQLRKSNMEFEERNAALQKHVESMRTAVEKLEVDVIQERSRNTVLQQHLETLRQVLTSSFASMPLPGSGETPTVDTIDSYMNRLHSIILANPQDNENFIATVREVVNRLDR [HMG20A]”, the “solubility in G1/S (log2)” value (HeLa Kyoto [1]) was -0.0378 and the “solubility change mitosis (log2)” value (HeLa Kyoto [2]) was 0.298.
For WDR81, the “solubility in G1/S (log2)” value (HeLa Kyoto [1]) was -0.0834 and the “solubility change mitosis (log2)” value (HeLa Kyoto [2]) was -0.333.
For CLIC3, the “solubility in G1/S (log2)” value (HeLa Kyoto [1]) was 0.369 and the “solubility change mitosis (log2)” value (HeLa Kyoto [2]) was -0.00439.
For “MRRDERDAKAMRSLQPPDGAGSPPESLRNGYVKSCVSPLRQDPPRGFFFHLCRFCNVELRPPPASPQQPRRCSPFCRARLSLGALAAFVLALLLGAEPESWAAGAAWLRTLLSVCSHSLSPLFSIACAFFFLTCFLTRTKRGPGPGRSCGSWWLLALPACCYLGDFLVWQWWSWPWGDGDAGSAAPHTPPEAAAGRLLLVLSCVGLLLTLAHPLRLRHCVLVLLLASFVWWVSFTSLGSLPSALRPLLSGLVGGAGCLLALGLDHFFQIREAPLHPRLSSAAEEKVPVIRPRRRSSCVSLGETAASYYGSCKIFRRPSLPCISREQMILWDWDLKQWYKPHYQNSGGGNGVDLSVLNEARNMVSDLLTDPSLPPQVISSLRSISSLMGAFSGSCRPKINPLTPFPGFYPCSEIEDPAEKGDRKLNKGLNRNSLPTPQLRRSSGTSGLLPVEQSSRWDRNNGKRPHQEFGISSQGCYLNGPFNSNLLTIPKQRSSSVSLTHHVGLRRAGVLSSLSPVNSSNHGPVSTGSLTNRSPIEFPDTADFLNKPSVILQRSLGNAPNTPDFYQQLRNSDSNLCNSCGHQMLKYVSTSESDGTDCCSGKSGEEENIFSKESFKLMETQQEEETEKKDSRKLFQEGDKWLTEEAQSEQQTNIEQEVSLDLILVEEYDSLIEKMSNWNFPIFELVEKMGEKSGRILSQVMYTLFQDTGLLEIFKIPTQQFMNYFRALENGYRDIPYHNRIHATDVLHAVWYLTTRPVPGLQQIHNGCGTGNETDSDGRINHGRIAYISSKSCSNPDESYGCLSSNIPALELMALYVAAAMHDYDHPGRTNAFLVATNAPQAVLYNDRSVLENHHAASAWNLYLSRPEYNFLLHLDHVEFKRFRFLVIEAILATDLKKHFDFLAEFNAKANDVNSNGIEWSNENDRLLVCQVCIKLADINGPAKVRDLHLKWTEGIVNEFYEQGDEEANLGLPISPFMDRSSPQLAKLQESFITHIVGPLCNSYDAAGLLPGQWLEAEEDNDTESGDDEDGEELDTEDEEMENNLNPKPPRRKSRRRIFCQLMHHLTENHKIWKEIVEEEEKCKADGNKLQVENSSLPQADEIQVIEEADEEE [PDE3B]”, the “solubility in G1/S (log2)” value (HeLa Kyoto [1]) was -0.122 and the “solubility change mitosis (log2)” value (HeLa Kyoto [2]) was -0.0328.
In the case of “MAPVSGSRSPDREASGSGGRRRSSSKSPKPSKSARSPRGRRSRSHSCSRSGDRNGLTHQLGGLSQGSRNQSYRSRSRSRSRERPSAPRGIPFASASSSVYYGSYSRPYGSDKPWPSLLDKEREESLRQKRLSERERIGELGAPEVWGLSPKNPEPDSDEHTPVEDEEPKKSTTSASTSEEEKKKKSSRSKERSKKRRKKKSSKRKHKKYSEDSDSDSDSETDSSDEDNKRRAKKAKKKEKKKKHRSKKYKKKRSKKSRKESSDSSSKESQEEFLENPWKDRTKAEEPSDLIGPEAPKTLTSQDDKPLNYGHALLPGEGAAMAEYVKAGKRIPRRGEIGLTSEEIASFECSGYVMSGSRHRRMEAVRLRKENQIYSADEKRALASFNQEERRKRENKILASFREMVYRKTKGKDDK [NKAP]”, the “solubility in G1/S (log2)” value (HeLa Kyoto [1]) is reported as -0.301 and the “solubility change mitosis (log2)” value (HeLa Kyoto [2]) is reported as 0.107.
